Test system: human Burkitt lymphoma Raji cells
Assay: Test Example 1: cytotoxic action of complement and antibody drug (rituximab) with sample added, PI method
Type: cell-based
Conditions: for Cytotoxic activity (%): 100 μl/well of 1000 μg/ml sample, 1 hour, PI
Protocol: Test Sample 1 was prepared with the lactoferrin hydrolysate mixture prepared in Preparation Example 1, of which concentration was adjusted to 1000 μg/ml in RPMI 1640 medium (Sigma, catalog number: R8758) containing 7.5% fetal bovine serum (Gibco, catalog number: 10099-141) and 1% penicillin-streptomycin (Gibco, catalog number: 15070-063) [henceforth this solution is referred to as “dilution solution”]. Furthermore, Control Sample 1 was prepared by diluting lactoferrin to a concentration of 1000 μg/ml with the dilution solution.
As target cells for measurement of cytotoxic action of complement and antibody drug, human Burkitt lymphoma Raji cells (ATCC CCL-86, obtained from American Type Culture Collection (10801 University Boulevard, Manassas, Va. 20110-2209, USA)) were used, and the cells were suspended at a density of 2×10^6 cells/ml by using the dilution solution to prepare a Raji cell suspension. As an antibody drug solution, rituximab (Zenyaku Kogyo, sold by Nippon Roche) that recognizes the CD20 antigen was used, and it was prepared at a concentration of 200 μg/ml using the dilution solution. As a complement solution, Human serum AB (Cosmobio, catalog number: 832000027) was used. These antibody drug solution and complement solution were also used for Test Examples 2 to 5 described below.
Viability determination of the cells was performed by the method using propidium iodide (PI, Dojindo, catalog number: P378) [Cytometry, Vol. 8, No. 4, pp. 421-426, 1987] or the method using Calcein-AM (Dojindo, catalog number: 341-07901) [Apoptosis, Vol. 3, No. 3, pp. 195-202, 1998].
The Raji cell suspension was added to each well of a 24-well culture plate (NUNC, catalog number: 143982) in a volume of 100 μl each (2×10^5 cells each). The 24 wells were divided into four groups, to wells (6 wells) of one group among them, 50 μl/well of the antibody drug solution and 250 μl/well of dilution solution were added as “Addition of antibody drug”. Further, to wells (6 wells) of another group, 100 μl of the complement solution and 200 μl of the dilution solution were added as “Addition of complement”. Furthermore, to wells (6 wells) of another group, 50 μl of the antibody drug solution, 100 μl of the complement solution and 150 μl of the dilution solution were added as “Addition of antibody drug+complement”. To wells (6 wells) of the remaining one group, 300 μl of the dilution solution was added as “No addition”.
For the aforementioned four groups, 100 μl/well of Test Sample 1 (4 groups×2 wells), Control Sample 1 (4 groups×2 wells) or the dilution solution (4 groups×2 wells) mentioned above was added as “Test Sample Group 1”, “Control Sample Group 1” and “Negative Sample Group 1”, respectively.
By using the 24-well plate prepared as described above, the cells were cultured under the conditions of 37° C. and 5% carbon dioxide (CO2) for 1 hour using an incubator (Napco, catalog number: 5300). Then, the cells of each sample group were collected, and the rate of dead cells in each was examined by the aforementioned method using PI. Cytotoxic activity was calculated based on a case where all the target cells were killed, which was taken as 100%.

B1: Control Sample Group 1: Undecomposed commercially available bovine lactoferrin (Morinaga Milk Industry Co., Ltd.) used as control (protein, listed as Bos taurus)
chain: MKLFVPALLSLGALGLCLAAPRKNVRWCTISQPEWFKCRRWQWRMKKLGAPSITCVRRAFALECIRAIAEKKADAVTLDGGMVFEAGRDPYKLRPVAAEIYGTKESPQTHYYAVAVVKKGSNFQLDQLQGRKSCHTGLGRSAGWIIPMGILRPYLSWTESLEPLQGAVAKFFSASCVPCIDRQAYPNLCQLCKGEGENQCACSSREPYFGYSGAFKCLQDGAGDVAFVKETTVFENLPEKADRDQYELLCLNNSRAPVDAFKECHLAQVPSHAVVARSVDGKEDLIWKLLSKAQEKFGKNKSRSFQLFGSPPGQRDLLFKDSALGFLRIPSKVDSALYLGSRYLTTLKNLRETAEEVKARYTRVVWCAVGPEEQKKCQQWSQQSGQNVTCATASTTDDCIVLVLKGEADALNLDGGYIYTAGKCGLVPVLAENRKSSKHSSLDCVLRPTEGYLAVAVVKKANEGLTWNSLKDKKSCHTAVDRTAGWNIPMGLIVNQTGSCAFDEFFSQSCAPGADPKSRLCALCAGDDQGLDKCVPNSKEKYYGYTGAFRCLAEDVGDVAFVKNDTVWENTNGESTADWAKNLNREDFRLLCLDGTRKPVTEAQSCHLAVAPNHAVVSRSDRAAHVKQVLLHQQALFGKNGKNCPDKFCLFKSETKNLLFNDNTECLAKLGGRPTYEEYLGTEYVTAIANLKKCSTSPLLEACAFLTR
modifications: sig_peptide (1)...(19) Lactoferrin
- change of cytotoxic activity compared with the negative sample group (Addition of antibody drug + complement): did not increase
- Cytotoxic activity (%) (Addition of antibody drug + complement (rituximab, human serum AB)): 24.3%
- Cytotoxic activity (%) (Addition of antibody drug only): 1.0%
- Cytotoxic activity (%) (Addition of complement only): 1.2%
- Cytotoxic activity (%) (No addition (no antibody drug, no complement)): 1.0%

Reference: patent US7419667B2, “Drug for cancer therapy” (Morinaga Milk Industry Co. Ltd., priority 2004, dated 2008)
